{"source": "paper PMC5373536", "about": "“Proteomic analysis of organic sulfur compound utilisation in Advenella mimigardefordensis strain DPN7^T” (PLoS ONE, 2017)", "proteins": {"B1": {"name": "MsdoDPN7 (MsdoAm; MIM_c37420) (Advenella mimigardefordensis DPN7) (protein)", "chain": "MTSKQDKQVAIRQFIDITKDIDSAQLDREKLAKIRDALVGIAAHKEWWGQDLYPAPTGDELQARYLIHAEPDNSYALYLNVMKPGKKIVPHNHTTWACIAAVEGVESNYLYERTDDGSVPGHATVVQTGMQAVEPGHGIALMPDDIHAVRIEDDNIRHLHMYGRALETLTERMAFDTSNNTCKIMDVGVKTQRSKG", "notes": "full gene in pET-19b (NdeI/XhoI), N-terminal His tag, expressed in E. coli BL21(DE3) pLysS, Ni-NTA purified; tag removal not mentioned"}}, "substrate": "O=C(O)CC(S)C(=O)O", "test": "oxygen consumption, oxygen electrode, nonlinear regression", "type": "biochemical, Advenella mimigardefordensis", "settings": "100 mM Tris/HCl pH 7.4, 0.05-75 mM MS, 2 ug/ml enzyme, O2 co-substrate"}
{"protein": "B1", "values": [{"measurement": "Km", "result": 200, "unit": "µM"}]}
